Results reported in patent US20250152722A1, “DRUG CONJUGATE OF GLUCOCORTICOID” (SHANGHAI SHENGDI PHARMACEUTICAL CO., LTD., priority 2022, published 2025).

T1: human IL-4Rα protein (Homo sapiens, UniProt P24394)
T1 construct: purchased SinoBiological 10402-H08H-B
T1 sequence (P24394 26-232 limits assumed): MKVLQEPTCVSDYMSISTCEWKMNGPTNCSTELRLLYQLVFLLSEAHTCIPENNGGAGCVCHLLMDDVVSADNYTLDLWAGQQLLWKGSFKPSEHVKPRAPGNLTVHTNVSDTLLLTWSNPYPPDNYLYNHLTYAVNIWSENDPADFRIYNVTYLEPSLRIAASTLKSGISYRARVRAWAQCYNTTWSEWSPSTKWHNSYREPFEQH

T2: human IL-4Rα expressed on cells (human, UniProt P24394 26-825)
T2 sequence (looked up): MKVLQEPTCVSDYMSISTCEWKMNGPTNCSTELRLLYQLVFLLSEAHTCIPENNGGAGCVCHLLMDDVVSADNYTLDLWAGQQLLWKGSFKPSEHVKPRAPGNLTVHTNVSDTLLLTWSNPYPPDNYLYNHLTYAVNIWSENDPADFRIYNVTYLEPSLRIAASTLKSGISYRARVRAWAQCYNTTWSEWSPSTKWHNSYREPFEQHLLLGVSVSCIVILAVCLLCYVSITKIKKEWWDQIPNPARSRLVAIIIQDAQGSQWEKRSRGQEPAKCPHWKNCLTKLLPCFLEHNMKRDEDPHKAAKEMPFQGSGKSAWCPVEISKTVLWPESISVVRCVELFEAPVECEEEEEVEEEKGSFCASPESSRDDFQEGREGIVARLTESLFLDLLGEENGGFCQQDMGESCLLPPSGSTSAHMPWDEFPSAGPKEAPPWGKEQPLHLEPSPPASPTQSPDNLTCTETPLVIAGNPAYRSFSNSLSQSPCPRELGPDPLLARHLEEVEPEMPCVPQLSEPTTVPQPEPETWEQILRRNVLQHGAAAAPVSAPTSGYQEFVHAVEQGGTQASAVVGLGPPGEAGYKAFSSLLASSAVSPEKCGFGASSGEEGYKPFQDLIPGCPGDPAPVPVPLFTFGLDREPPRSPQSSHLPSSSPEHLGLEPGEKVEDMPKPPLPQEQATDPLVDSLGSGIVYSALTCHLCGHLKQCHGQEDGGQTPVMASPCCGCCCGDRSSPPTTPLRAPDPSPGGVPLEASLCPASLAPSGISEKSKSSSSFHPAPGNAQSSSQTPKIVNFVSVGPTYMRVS

T3: Biotin-labeled human IL-4Rα protein (SinoBiological, CAT #10402-H08H-B) (human, UniProt P24394 26-232, Biotin-labeled (sites not given))
T3 construct: Bought reagent, captured on an SA sensor chip; also called hIL-4Rα; human IL-4Rα antigen protein
T3 sequence (looked up): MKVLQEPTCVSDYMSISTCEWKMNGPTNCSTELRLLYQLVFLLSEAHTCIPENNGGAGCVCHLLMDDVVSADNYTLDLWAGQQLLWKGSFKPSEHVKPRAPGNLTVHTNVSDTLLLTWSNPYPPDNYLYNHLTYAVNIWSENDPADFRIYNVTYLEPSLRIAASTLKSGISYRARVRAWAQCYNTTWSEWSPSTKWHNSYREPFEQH

B1: 25G7-Fab (Fab, V domains shown)
VH: EVQLVESGGGLVQPGGSLRLSCAASGFTFSDYGMHWVRQAPGKGLEWVAFISSGSSIIYYADIVKGRSTISRDNAKNTLYLQMNSLRAEDTAVYYCTRGNKRGFFDYWGQGTLVTVSS
VL: EIVLTQSPATLSLSPGERATLSCRASSSVPYMYWYQQKPGQAPRLLIYLTSNLASGIPARFSGSGSGTDFTLTISSLEPEDFAVYYCQQWRAYPPMLTFGGGTKVEIKR
notes: Heavy chain is VH-CH1 (hu25G7-24-IgG4 VH-CH1), light chain is hu25G7-A LC; also called naked antibody 25G7-Fab; antibody 25G7-Fab
B2: hu25G7 (antibody, human IgG4 S228P, kappa, V domains shown)
VH: EVQLVESGGGLVQPGGSLRLSCAASGFTFSDYGMHWVRQAPGKGLEWVAFISSGSSIIYYADIVKGRSTISRDNAKNTLYLQMNSLRAEDTAVYYCTRGNKRGFFDYWGQGTLVTVSS
VL: EIVLTQSPATLSLSPGERATLSCRASSSVPYMYWYQQKPGQAPRLLIYLTSNLASGIPARFSGSGSGTDFTLTISSLEPEDFAVYYCQQWRAYPPMLTFGGGTKVEIKR
notes: Full-length humanized antibody
B3: antibody-drug conjugate ADC-2 (other)
heavy: EVQLVESGGGLVQPGGSLRLSCAASGFTFSDYGMHWVRQAPGKGLEWVAFISSGSSIIYYADIVKGRSTISRDNAKNTLYLQMNSLRAEDTAVYYCTRGNKRGFFDYWGQGTLVTVSSASTKGPSVFPLAPCSRSTSESTAALGCLVKDYFPEPVTVSWNSGALTSGVHTFPAVLQSSGLYSLSSVVTVPSSSLGTKTYTCNVDHKPSNTKVDKRV
light: EIVLTQSPATLSLSPGERATLSCRASSSVPYMYWYQQKPGQAPRLLIYLTSNLASGIPARFSGSGSGTDFTLTISSLEPEDFAVYYCQQWRAYPPMLTFGGGTKVEIKRTVAAPSVFIFPPSDEQLKSGTASVVCLLNNFYPREAKVQWKVDNALQSGNSQESVTEQDSKDSTYSLSSTLTLSKADYEKHKVYACEVTHQGLSSPVTKSFNRGEC
modifications: budesonide linker-drug (Compound 2) coupled after TCEP reduction of 25G7-Fab; positions and drug loading not given; budesonide linker-drug (Compound 2, maleimide-(PEG)4-CH2CH2C(O)-Gly-Gly-Phe-Gly-NHCH2-O-budesonide) coupled after TCEP reduction of 25G7-Fab; positions and drug loading not given

What was measured:
[1] = Pharmacokinetic testing on mouse model after intratracheal nebulization; assay type: in vivo; conditions: after ADC-2 100 μg i.t., mice
Description: C57BL6/J mice, 8 weeks old, male, Cyagen (Suzhou) Biosciences Co., Ltd.
Mice were given medication via intratracheal nebulization (i.t.). At different time points post-administration, 300-400 μL of blood was collected from a mandibular blood vessel, left to stand for 2 h, and then centrifuged at 7500 rpm and 4° C. for 10 min, and the serum was collected. Following the blood collection, the mice were anesthetized and immobilized, the neck muscles of the mice were bluntly isolated to expose the trachea, and an incision was horizontally made in the trachea. A lavage syringe needle was slowly inserted, the normal saline pre-loaded, pre-cooled at 4° C., was slowly injected into the lung tissue for lavage, and the bronchoalveolar lavage fluid (BALF) was collected. Lavage was performed 3 times, with 300 μL of normal saline used for each of the first two lavages and 400 μL for the third. The collected bronchoalveolar lavage fluid was centrifuged at 1000 rpm and 4° C. for 10 min, and the supernatant was collected. After the mice were euthanized, their thoracic cavities were opened, and the complete lung tissues were isolated and collected. The tissues were rinsed with PBS to remove blood stains on the surfaces, and the surface PBS was dried off with paper towels before weighing the lung tissues. […] The protein concentrations in the homogenates were measured (Pierce, 23227). […]

human IL-4Rα protein = target: T1, human IL-4Rα protein; assay: SPR affinity for human IL-4Rα antigen protein (Biacore 8K); assay type: binding; conditions: captured hIL-4Rα
Description: An SA sensor chip (Cytiva) was placed in Biacore 8K (Cytiva), and Biotin-labeled human IL-4Rα protein (SinoBiological, CAT #10402-H08H-B) was captured on the SA sensor chip. HBS-EP+buffer solution (10 mM HEPES, 150 mM NaCl, 3 mM EDTA, 0.05% surfactant P20) was used as the mobile phase. Each test protein was serially diluted 2-fold with HBS-EP+buffer solution and then injected as an analyte. […] Analysis was performed using Biacore 8K evaluation software (Cytiva), and data on the affinities of the test proteins were obtained.

[2] = target: T2, human IL-4Rα expressed on cells; assay: cell-based or functional assay
[3] = target: T2, human IL-4Rα expressed on cells; assay: flow cytometry on TF-1 cells, anti-hFab-FITC secondary antibody
Description: (§1) TF-1 and Karpas299 cells in the logarithmic growth phase were harvested and counted, and the cell density was adjusted. The cells were inoculated onto a 96-well round-bottom plate at 1×10⁵ cells/well. […] After the antibodies were washed off with FACS buffer (PBS containing 2% FBS), a fluorescently labeled secondary antibody was added for staining. […] The cells were incubated with the secondary antibodies at 4° C. for 30 min, then washed with FACS buffer twice, and assayed on a flow cytometer (BD, FACS Celesta), and the results were analyzed using FlowJo (FlowJo, LLC) software.

[4] = target: T2, human IL-4Rα expressed on cells; assay: flow cytometry, whole-cell binding to Karpas 299 cells expressing IL-4Rα; FITC anti-human IgG (Fab-specific) secondary antibody
Description: as §1

[5] = target: T3, Biotin-labeled human IL-4Rα protein …; assay: SPR, Biacore 8K, biotinylated hIL-4Rα captured on SA chip, test protein as analyte
Description: HBS-EP+buffer solution (10 mM HEPES, 150 mM NaCl, 3 mM EDTA, 0.05% surfactant P20) was used as the mobile phase. Each test protein was serially diluted 2-fold with HBS-EP+buffer solution and then injected as an analyte. The flow rate was set to 30 μL/min. […] Analysis was performed using Biacore 8K evaluation software (Cytiva), and data on the affinities of the test proteins were obtained.

| Molecule | IC50 value (nM) for blocking of IL-4 signaling pathway (HEK-Blue IL-4/IL-13 STAT6-SEAP reporter cells, recombinant human IL-4) [2] [nM] | IC50 value (nM) for blocking of IL-13 signaling pathway (HEK-Blue IL-4/IL-13 STAT6-SEAP reporter cells, recombinant human IL-13) [2] [nM] | EC50 [3] [nM] | EC50 (read off the curve) [4] [nM] | other results |
| --- | --- | --- | --- | --- | --- |
| CCCC1O[C@@H]2C[C@H]3[C@@H]4CCC5=CC(=O)C=C[C@]5(C)[C@H]4[C@@H](O)C[C@]3(C)[C@]2(C(=O)CO)O1 (stereo partly drawn) [Free budesonide, budesonide] |  |  |  |  | exposure of budesonide in serum, BALF and lung tissue (in words) [1]: low in all these tissues |
| AZD1402-TAG: protein sequence from SEQ ID NO: 1 in WO2020200960A1 with a His tag fused at the C-terminus (SEQ ID NO: 52) |  |  |  |  | Koff (human IL-4Rα protein): 0.000102 s⁻¹; Kon (human IL-4Rα protein): 4.77e+06 M⁻¹ s⁻¹ |
| B1 | 0.61 | 14.6 | 0.243 | ~0.2 | Kd [5]: 0.0439 nM; koff [5]: 0.000206 s⁻¹; kon [5]: 4.69e+06 M⁻¹ s⁻¹ |
| B2 |  |  | 0.247 | ~0.1 |  |
| B3 | 0.68 | 10.6 |  | ~0.3 |  |
